In the RNAGym collection of RNA variant scans (doi:10.1093/molbev/msab373):

B1: Azoarcus group I ribozyme (parent)
chain: GUGCCUUGCGCCGGGAAACCACGCAAGGGAUGGUGUCAAAUUCGGCGAAACCUAAGCGCCCGCCCGGGCGUAUGGCAACGCCGAGCCAAGCUUCGGCGCCUGCGCCGAUGAAGGUGUAGAGACUAGACGGCACCCACCUAAGGCAAACGCUAUGGUGAAGGCAUAGUCCAGGGAGUGGCGAAAGUCACACAAACCGG

Variants of: B1
Experiment: reverse-splicing fitness (ratio to wild type); higher = more active; in vitro selection; Mg2+ level not given
In short: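 An in vitro group I ribozyme library with randomized positions was T7-transcribed and gel-purified. In triplicate, 10 pmol RNA in EPPS pH 7.5 was reacted with 50 pmoles of a 30-nt RNA substrate for 1 h at 37 °C across several added MgCl2 levels (1–48 mM), then stopped with EDTA. Products were reverse transcribed from a substrate-complementary primer, PCR-amplified and sequenced (HiSeq 4000). Fitness is a variant's read proportion after selection over that before, normalised to wild type.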

| Variant | reverse-splicing fitness |
| --- | --- |
| GUGCCUUGCGCCGGGAAACCACGCAAGGGAUGGUGUCAAAUUCGGCGAAACCUAAGCGCCCGCCCGGGCGUAUGGCAACGCCGAGCCAAGCUUCGGCGCCUGCGCCGAUGCAGGUGUAGAGACUAGACGGCACCCACCUAAGGCCAACGGUAUGGUGAAGGCAUAGUCCAGGGAGGGGCGAAAGUCACACAAACCGG | 0.0182 |
| GUGCCUUGCGCCGGGAAACCACGCAAGGGAUGGUGUCAAAUUCGGCGAAACCUAAGCGCCCGCCCGGGCGUAUGGCAACGCCGAGCCAAGCUUCGGCGCCUGCGCCGAUGCAGGUGUAGAGACUAGACGGCACCCACCUAAGGCCAACGGUAUGGUGAAGGCAUAGUCCAGGGAGAGGCGAAAGUCACACAAACCGG | 0.0871 |
| GUGCCUUGCGCCGGGAAACCACGCAAGGGAUGGUGUCAAAUUCGGCGAAACCUAAGCGCCCGCCCGGGCGUAUGGCAACGCCGAGCCAAGCUUCGGCGCCUGCGCCGAUGCAGGUGUAGAGACUAGACGGCACCCACCUAAGGCCAACGGUAUGGUGAAGGCAUAGUCCAGGGAGCGGCGAAAGUCACACAAACCGG | 0.13 |
| GUGCCUUGCGCCGGGAAACCACGCAAGGGAUGGUGUCAAAUUCGGCGAAACCUAAGCGCCCGCCCGGGCGUAUGGCAACGCCGAGCCAAGCUUCGGCGCCUGCGCCGAUGCAGGUGUAGAGACUAGACGGCACCCACCUAAGGCCAACGGUAUGGUGAAGGCAUAGUCUAGGGAGGGGCGAAAGUCACACAAACCGG | 0.00607 |
| GUGCCUUGCGCCGGGAAACCACGCAAGGGAUGGUGUCAAAUUCGGCGAAACCUAAGCGCCCGCCCGGGCGUAUGGCAACGCCGAGCCAAGCUUCGGCGCCUGCGCCGAUGCAGGUGUAGAGACUAGACGGCACCCACCUAAGGCCAACGGUAUGGUGAAGGCAUAGUCUAGGGAGCGGCGAAAGUCACACAAACCGG | 0.0119 |
| GUGCCUUGCGCCGGGAAACCACGCAAGGGAUGGUGUCAAAUUCGGCGAAACCUAAGCGCCCGCCCGGGCGUAUGGCAACGCCGAGCCAAGCUUCGGCGCCUGCGCCGAUGCAGGUGUAGAGACUAGACGGCACCCACCUAAGGCCAACGUUAUGGUGAAGGCAUAGUCCAGGGAGUGGCGAAAGUCACACAAACCGG | 0.554 |
| GUGCCUUGCGCCGGGAAACCACGCAAGGGAUGGUGUCAAAUUCGGCGAAACCUAAGCGCCCGCCCGGGCGUAUGGCAACGCCGAGCCAAGCUUCGGCGCCUGCGCCGAUGCAGGUGUAGAGACUAGACGGCACCCACCUAAGGCCAACGUUAUGGUGAAGGCAUAGUCAAGGGAGCGGCGAAAGUCACACAAACCGG | 0.00847 |
| GUGCCUUGCGCCGGGAAACCACGCAAGGGAUGGUGUCAAAUUCGGCGAAACCUAAGCGCCCGCCCGGGCGUAUGGCAACGCCGAGCCAAGCUUCGGCGCCUGCGCCGAUGCAGGUGUAGAGACUAGACGGCACCCACCUAAGGCCAACGUUAUGGUGAAGGCAUAGUCAAGGGAGAGGCGAAAGUCACACAAACCGG | 0.0139 |
| GUGCCUUGCGCCGGGAAACCACGCAAGGGAUGGUGUCAAAUUCGGCGAAACCUAAGCGCCCGCCCGGGCGUAUGGCAACGCCGAGCCAAGCUUCGGCGCCUGCGCCGAUGCAGGUGUAGAGACUAGACGGCACCCACCUAAGGCCAACGUUAUGGUGAAGGCAUAGUCAAGGGAGGGGCGAAAGUCACACAAACCGG | 0.00708 |
| GUGCCUUGCGCCGGGAAACCACGCAAGGGAUGGUGUCAAAUUCGGCGAAACCUAAGCGCCCGCCCGGGCGUAUGGCAACGCCGAGCCAAGCUUCGGCGCCUGCGCCGAUGCAGGUGUAGAGACUAGACGGCACCCACCUAAGGCCAACGUUAUGGUGAAGGCAUAGUCGAGGGAGCGGCGAAAGUCACACAAACCGG | 0.0197 |
| GUGCCUUGCGCCGGGAAACCACGCAAGGGAUGGUGUCAAAUUCGGCGAAACCUAAGCGCCCGCCCGGGCGUAUGGCAACGCCGAGCCAAGCUUCGGCGCCUGCGCCGAUGCAGGUGUAGAGACUAGACGGCACCCACCUAAGGCCAACGUUAUGGUGAAGGCAUAGUCGAGGGAGGGGCGAAAGUCACACAAACCGG | 0.00689 |
| GUGCCUUGCGCCGGGAAACCACGCAAGGGAUGGUGUCAAAUUCGGCGAAACCUAAGCGCCCGCCCGGGCGUAUGGCAACGCCGAGCCAAGCUUCGGCGCCUGCGCCGAUGCAGGUGUAGAGACUAGACGGCACCCACCUAAGGCCAACGUUAUGGUGAAGGCAUAGUCGAGGGAGAGGCGAAAGUCACACAAACCGG | 0.0249 |
| GUGCCUUGCGCCGGGAAACCACGCAAGGGAUGGUGUCAAAUUCGGCGAAACCUAAGCGCCCGCCCGGGCGUAUGGCAACGCCGAGCCAAGCUUCGGCGCCUGCGCCGAUGCAGGUGUAGAGACUAGACGGCACCCACCUAAGGCCAACGUUAUGGUGAAGGCAUAGUCUAGGGAGUGGCGAAAGUCACACAAACCGG | 0.032 |
| GUGCCUUGCGCCGGGAAACCACGCAAGGGAUGGUGUCAAAUUCGGCGAAACCUAAGCGCCCGCCCGGGCGUAUGGCAACGCCGAGCCAAGCUUCGGCGCCUGCGCCGAUGCAGGUGUAGAGACUAGACGGCACCCACCUAAGGCCAACGUUAUGGUGAAGGCAUAGUCGAGGGAGUGGCGAAAGUCACACAAACCGG | 0.0204 |
| GUGCCUUGCGCCGGGAAACCACGCAAGGGAUGGUGUCAAAUUCGGCGAAACCUAAGCGCCCGCCCGGGCGUAUGGCAACGCCGAGCCAAGCUUCGGCGCCUGCGCCGAUGCAGGUGUAGAGACUAGACGGCACCCACCUAAGGCCAACGUUAUGGUGAAGGCAUAGUCAAGGGAGUGGCGAAAGUCACACAAACCGG | 0.0114 |
